PMC12057046, “Elucidation of short linear motif-based interactions of the MIT and rhodanese domains of the ubiquitin-specific protease 8” (Biology Direct, 2025)

B1: TET3 peptide 1705-1720 (methylcytosine dioxygenase TET3), 16-mer library wild type / USP8 rhodanese domain (ubiquitin carboxyl-terminal hydrolase 8, residues 174-317) (parent)
chain 1: GLALWEAKMKQLAERA
chain 2: KCETKEKGAITAKELYTMMTDKNISLIIMDARRMQDYQDSCILHSLSVPEEAISPGVTASWIEAHLPDDSKDTWKKRGNVEYVVLLDWFSSAKDLQIGTTLRSLKDALFKWESKTVLRNEPLVLEGGYENWLLCYPQYTTNAKV

Variants of: B1
Experiment: peptide-phage display deep mutational scan (M13, 16-mer library, displayed with a C-terminal GGGSG linker encoded by the 3' flank) selected against the GST-tagged USP8 rhodanese domain, four rounds; NGS counts summed over selection …
Settings: with USP8 rhodanese domain (ubiquitin carboxyl-terminal hydrolase 8, residues 174-317), 10 µg GST-bait on MaxiSorp, pre-cleared on GST, 2 h at 4 °C, five washes with 0.05% Tween 20 in PBS, not graded, scale: average over two replicas of the peptide's fractional NGS count

**Q.** Which screen value does the source give for chain 1 GLALWEAKMGQLAERA [chain 1 K10G] here?
**A.** 0.00596

**Q.** Which screen value does the source give for chain 1 GLALWEAKMHQLAERA [chain 1 K10H] here?
**A.** 0.0117

**Q.** Which screen value does the source give for chain 1 GLALWEAKMPQLAERA [chain 1 K10P] here?
**A.** 8.66e-06

**Q.** chain 1 GLALWEAKMFQLAERA [chain 1 K10F] was tested. Which screen value did it give?
**A.** 8.06e-05

**Q.** With chain 1 GLALWEAKMTQLAERA [chain 1 K10T] as the variant, how does the screen value read?
**A.** 0.00016

**Q.** chain 1 GLALWEAKMSQLAERA [chain 1 K10S] was tested. Which screen value did it give?
**A.** 0.0345

**Q.** chain 1 GLALWEAKMWQLAERA [chain 1 K10W] was tested. Which screen value did it give?
**A.** 0.00214

**Q.** chain 1 GLALWEAKMAQLAERA [chain 1 K10A] was tested. Which screen value did it give?
**A.** 0.0149

**Q.** How did the screen value turn out when chain 1 GLALWEAKMVQLAERA [chain 1 K10V] was run?
**A.** 0.00689

**Q.** Which screen value does the source give for chain 1 GLALWEAKMDQLAERA [chain 1 K10D] here?
**A.** 0.000192

**Q.** How did the screen value turn out when chain 1 GLALWEAKMMQLAERA [chain 1 K10M] was run?
**A.** 1.15e-05

**Q.** Which screen value does the source give for chain 1 GLALWEAKMRQLAERA [chain 1 K10R] here?
**A.** 0.00248

**Q.** With chain 1 GLALWEAKMLQLAERA [chain 1 K10L] as the variant, how does the screen value read?
**A.** 0.000183

**Q.** How did the screen value turn out when chain 1 GLALWEAKMEQLAERA [chain 1 K10E] was run?
**A.** 0.0209

**Q.** Which screen value does the source give for chain 1 GLALWEAKMIQLAERA [chain 1 K10I] here?
**A.** 0.00024

**Q.** chain 1 GLALWEAKMQQLAERA [chain 1 K10Q] was tested. Which screen value did it give?
**A.** 0.000152

**Q.** How did the screen value turn out when chain 1 GLALWEAKMNQLAERA [chain 1 K10N] was run?
**A.** 0.0933

**Q.** For chain 1 GLALWEAKMKQLVERA [chain 1 A13V], which screen value is on record?
**A.** 0.0163

**Q.** With chain 1 GLALWEAKMKQLEERA [chain 1 A13E] as the variant, how does the screen value read?
**A.** 0.0925

**Q.** With chain 1 GLALWEAKMKQLTERA [chain 1 A13T] as the variant, how does the screen value read?
**A.** 3.6e-05

**Q.** chain 1 GLALWEAKMKQLMERA [chain 1 A13M] was tested. Which screen value did it give?
**A.** 5.89e-05

**Q.** With chain 1 GLALWEAKMKQLGERA [chain 1 A13G] as the variant, how does the screen value read?
**A.** 0.0144

**Q.** With chain 1 GLALWEAKMKQLIERA [chain 1 A13I] as the variant, how does the screen value read?
**A.** 1.3e-05

**Q.** chain 1 GLALWEAKMKQLKERA [chain 1 A13K] was tested. Which screen value did it give?
**A.** 2.6e-05

**Q.** With chain 1 GLALWEAKMKQLPERA [chain 1 A13P] as the variant, how does the screen value read?
**A.** 5.48e-05

**Q.** Which screen value does the source give for chain 1 GLALWEAKMKQLYERA [chain 1 A13Y] here?
**A.** 2.45e-05

**Q.** With chain 1 GLALWEAKMKQLHERA [chain 1 A13H] as the variant, how does the screen value read?
**A.** 0.0027

**Q.** Which screen value does the source give for chain 1 GLALWEAKMKQLQERA [chain 1 A13Q] here?
**A.** 0.00219

**Q.** chain 1 GLALWEAKMKQLDERA [chain 1 A13D] was tested. Which screen value did it give?
**A.** 2.6e-05

**Q.** With chain 1 GLALWEAKMKQLLERA [chain 1 A13L] as the variant, how does the screen value read?
**A.** 0.000154

**Q.** For chain 1 GLALWEAKMKQLNERA [chain 1 A13N], which screen value is on record?
**A.** 0.000273

**Q.** With chain 1 GLDLWEAKMKQLAERA [chain 1 A3D] as the variant, how does the screen value read?
**A.** 0.0209

**Q.** For chain 1 GLELWEAKMKQLAERA [chain 1 A3E], which screen value is on record?
**A.** 0.064

**Q.** Which screen value does the source give for chain 1 GLVLWEAKMKQLAERA [chain 1 A3V] here?
**A.** 0.000173

**Q.** How did the screen value turn out when chain 1 GLILWEAKMKQLAERA [chain 1 A3I] was run?
**A.** 4.33e-06

**Q.** Which screen value does the source give for chain 1 GLKLWEAKMKQLAERA [chain 1 A3K] here?
**A.** 1.3e-05

**Q.** Which screen value does the source give for chain 1 GLLLWEAKMKQLAERA [chain 1 A3L] here?
**A.** 4.33e-06

**Q.** Which screen value does the source give for chain 1 GLSLWEAKMKQLAERA [chain 1 A3S] here?
**A.** 0.000145

**Q.** With chain 1 GLTLWEAKMKQLAERA [chain 1 A3T] as the variant, how does the screen value read?
**A.** 5.18e-05

**Q.** How did the screen value turn out when chain 1 GLWLWEAKMKQLAERA [chain 1 A3W] was run?
**A.** 9.64e-05

**Q.** chain 1 GLMLWEAKMKQLAERA [chain 1 A3M] was tested. Which screen value did it give?
**A.** 0.00023

**Q.** Which screen value does the source give for chain 1 GLFLWEAKMKQLAERA [chain 1 A3F] here?
**A.** 4.33e-06

**Q.** How did the screen value turn out when chain 1 GLGLWEAKMKQLAERA [chain 1 A3G] was run?
**A.** 3.88e-05

**Q.** Which screen value does the source give for chain 1 GLQLWEAKMKQLAERA [chain 1 A3Q] here?
**A.** 0.00817

**Q.** Which screen value does the source give for chain 1 GLPLWEAKMKQLAERA [chain 1 A3P] here?
**A.** 0.000452

**Q.** With chain 1 GLYLWEAKMKQLAERA [chain 1 A3Y] as the variant, how does the screen value read?
**A.** 0.000177

**Q.** How did the screen value turn out when chain 1 GLHLWEAKMKQLAERA [chain 1 A3H] was run?
**A.** 8.66e-06

**Q.** chain 1 GLALWEAKMKQSAERA [chain 1 L12S] was tested. Which screen value did it give?
**A.** 4.33e-06

**Q.** For chain 1 GLALWEAKMKQKAERA [chain 1 L12K], which screen value is on record?
**A.** 4.33e-06

**Q.** chain 1 GLALWEAKMKQFAERA [chain 1 L12F] was tested. Which screen value did it give?
**A.** 8.66e-06

**Q.** For chain 1 GLALWEAKMKQIAERA [chain 1 L12I], which screen value is on record?
**A.** 4.33e-06

**Q.** How did the screen value turn out when chain 1 GLALWEAKMKQMAERA [chain 1 L12M] was run?
**A.** 4.33e-06

**Q.** With chain 1 GLALWEAKMKQAAERA [chain 1 L12A] as the variant, how does the screen value read?
**A.** 1.15e-05

**Q.** Which screen value does the source give for chain 1 GLALWEAKMKQRAERA [chain 1 L12R] here?
**A.** 1.15e-05

**Q.** How did the screen value turn out when chain 1 GLALWDAKMKQLAERA [chain 1 E6D] was run?
**A.** 9.38e-05

**Q.** chain 1 GLALWYAKMKQLAERA [chain 1 E6Y] was tested. Which screen value did it give?
**A.** 1.15e-05

**Q.** chain 1 GLALWFAKMKQLAERA [chain 1 E6F] was tested. Which screen value did it give?
**A.** 8.66e-06

**Q.** chain 1 GLALWVAKMKQLAERA [chain 1 E6V] was tested. Which screen value did it give?
**A.** 1.15e-05

**Q.** chain 1 GLALWAAKMKQLAERA [chain 1 E6A] was tested. Which screen value did it give?
**A.** 8.66e-06

**Q.** Which screen value does the source give for chain 1 GLALWHAKMKQLAERA [chain 1 E6H] here?
**A.** 3.9e-05

**Q.** With chain 1 GLALWGAKMKQLAERA [chain 1 E6G] as the variant, how does the screen value read?
**A.** 0.000196

**Q.** chain 1 GLALWSAKMKQLAERA [chain 1 E6S] was tested. Which screen value did it give?
**A.** 0.000221

**Q.** Which screen value does the source give for chain 1 GLAAWEAKMKQLAERA [chain 1 L4A] here?
**A.** 9.18e-05

**Q.** chain 1 GLARWEAKMKQLAERA [chain 1 L4R] was tested. Which screen value did it give?
**A.** 0.000374

**Q.** Which screen value does the source give for chain 1 GLAKWEAKMKQLAERA [chain 1 L4K] here?
**A.** 4.33e-06

**Q.** How did the screen value turn out when chain 1 GLAIWEAKMKQLAERA [chain 1 L4I] was run?
**A.** 0.211

**Q.** chain 1 GLAQWEAKMKQLAERA [chain 1 L4Q] was tested. Which screen value did it give?
**A.** 0.00044

**Q.** How did the screen value turn out when chain 1 GLASWEAKMKQLAERA [chain 1 L4S] was run?
**A.** 4.74e-05

**Q.** Which screen value does the source give for chain 1 GLATWEAKMKQLAERA [chain 1 L4T] here?
**A.** 0.000596

**Q.** chain 1 GLANWEAKMKQLAERA [chain 1 L4N] was tested. Which screen value did it give?
**A.** 0.00113

**Q.** How did the screen value turn out when chain 1 GLAMWEAKMKQLAERA [chain 1 L4M] was run?
**A.** 0.0286

**Q.** chain 1 GLADWEAKMKQLAERA [chain 1 L4D] was tested. Which screen value did it give?
**A.** 4.33e-06

**Q.** How did the screen value turn out when chain 1 GLAGWEAKMKQLAERA [chain 1 L4G] was run?
**A.** 2.3e-05

**Q.** Which screen value does the source give for chain 1 GLAFWEAKMKQLAERA [chain 1 L4F] here?
**A.** 0.000225

**Q.** chain 1 GLAVWEAKMKQLAERA [chain 1 L4V] was tested. Which screen value did it give?
**A.** 0.00974

**Q.** Which screen value does the source give for chain 1 GLAEWEAKMKQLAERA [chain 1 L4E] here?
**A.** 9.1e-05

**Q.** How did the screen value turn out when chain 1 GLAPWEAKMKQLAERA [chain 1 L4P] was run?
**A.** 4.33e-06

**Q.** How did the screen value turn out when chain 1 GLAHWEAKMKQLAERA [chain 1 L4H] was run?
**A.** 1.3e-05

**Q.** chain 1 GLALWEFKMKQLAERA [chain 1 A7F] was tested. Which screen value did it give?
**A.** 4.33e-06

**Q.** With chain 1 GLALWEWKMKQLAERA [chain 1 A7W] as the variant, how does the screen value read?
**A.** 0.0002

**Q.** How did the screen value turn out when chain 1 GLALWETKMKQLAERA [chain 1 A7T] was run?
**A.** 0.000404

**Q.** For chain 1 GLALWEQKMKQLAERA [chain 1 A7Q], which screen value is on record?
**A.** 0.00623

**Q.** With chain 1 GLALWEVKMKQLAERA [chain 1 A7V] as the variant, how does the screen value read?
**A.** 5.18e-05

**Q.** With chain 1 GLALWEHKMKQLAERA [chain 1 A7H] as the variant, how does the screen value read?
**A.** 0.00234

**Q.** Which screen value does the source give for chain 1 GLALWEYKMKQLAERA [chain 1 A7Y] here?
**A.** 2.3e-05

**Q.** Which screen value does the source give for chain 1 GLALWERKMKQLAERA [chain 1 A7R] here?
**A.** 4.33e-06

**Q.** chain 1 GLALWEMKMKQLAERA [chain 1 A7M] was tested. Which screen value did it give?
**A.** 0.000234

**Q.** With chain 1 GLALWENKMKQLAERA [chain 1 A7N] as the variant, how does the screen value read?
**A.** 0.000194

**Q.** chain 1 GLALWESKMKQLAERA [chain 1 A7S] was tested. Which screen value did it give?
**A.** 2.3e-05

**Q.** For chain 1 GLALWEIKMKQLAERA [chain 1 A7I], which screen value is on record?
**A.** 3.9e-05

**Q.** With chain 1 GLALWEEKMKQLAERA [chain 1 A7E] as the variant, how does the screen value read?
**A.** 8.66e-06

**Q.** For chain 1 GLALWELKMKQLAERA [chain 1 A7L], which screen value is on record?
**A.** 4.33e-06

**Q.** Which screen value does the source give for chain 1 GLALWEPKMKQLAERA [chain 1 A7P] here?
**A.** 5.46e-05

**Q.** For chain 1 GLALWEGKMKQLAERA [chain 1 A7G], which screen value is on record?
**A.** 7.04e-05
